From patent publication US20120100160A1

Target: murine LFA-1 (on TK1/TK-1 cells or primary murine splenocytes) (murine) (UniProt P24063)
Assay: cell-based or functional assay

UniProt P24063, sequence (P24063 24-1162, chain 1 of 2): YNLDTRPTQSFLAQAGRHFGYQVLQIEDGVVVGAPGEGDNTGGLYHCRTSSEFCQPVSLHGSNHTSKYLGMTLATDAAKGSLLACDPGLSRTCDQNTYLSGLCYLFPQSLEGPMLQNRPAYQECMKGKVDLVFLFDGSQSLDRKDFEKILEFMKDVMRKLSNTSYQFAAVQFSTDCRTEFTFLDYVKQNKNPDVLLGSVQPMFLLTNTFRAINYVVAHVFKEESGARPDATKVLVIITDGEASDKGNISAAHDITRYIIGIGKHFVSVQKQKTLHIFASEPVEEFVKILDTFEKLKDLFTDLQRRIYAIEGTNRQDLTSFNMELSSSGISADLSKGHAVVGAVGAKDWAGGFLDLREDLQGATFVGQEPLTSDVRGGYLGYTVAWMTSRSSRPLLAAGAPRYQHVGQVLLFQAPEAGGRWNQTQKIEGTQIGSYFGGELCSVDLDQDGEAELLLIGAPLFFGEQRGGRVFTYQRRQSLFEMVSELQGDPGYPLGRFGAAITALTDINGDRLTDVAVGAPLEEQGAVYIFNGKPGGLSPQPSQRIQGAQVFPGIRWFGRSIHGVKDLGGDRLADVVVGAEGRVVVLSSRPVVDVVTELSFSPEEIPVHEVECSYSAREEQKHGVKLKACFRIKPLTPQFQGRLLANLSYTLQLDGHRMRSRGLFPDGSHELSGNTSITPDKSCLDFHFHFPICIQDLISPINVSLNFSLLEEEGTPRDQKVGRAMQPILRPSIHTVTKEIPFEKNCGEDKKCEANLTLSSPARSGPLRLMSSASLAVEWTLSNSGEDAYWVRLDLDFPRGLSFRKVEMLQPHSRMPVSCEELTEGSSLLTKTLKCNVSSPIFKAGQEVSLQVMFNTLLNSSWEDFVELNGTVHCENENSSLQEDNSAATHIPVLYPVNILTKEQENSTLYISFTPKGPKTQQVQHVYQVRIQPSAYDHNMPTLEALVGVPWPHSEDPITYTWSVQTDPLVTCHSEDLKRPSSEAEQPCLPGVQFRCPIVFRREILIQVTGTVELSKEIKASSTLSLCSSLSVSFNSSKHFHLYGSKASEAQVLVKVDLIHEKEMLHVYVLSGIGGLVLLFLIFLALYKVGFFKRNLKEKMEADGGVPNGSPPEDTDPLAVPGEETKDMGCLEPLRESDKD
UniProt P24063, sequence (P11835 24-771, chain 2 of 2, further chain): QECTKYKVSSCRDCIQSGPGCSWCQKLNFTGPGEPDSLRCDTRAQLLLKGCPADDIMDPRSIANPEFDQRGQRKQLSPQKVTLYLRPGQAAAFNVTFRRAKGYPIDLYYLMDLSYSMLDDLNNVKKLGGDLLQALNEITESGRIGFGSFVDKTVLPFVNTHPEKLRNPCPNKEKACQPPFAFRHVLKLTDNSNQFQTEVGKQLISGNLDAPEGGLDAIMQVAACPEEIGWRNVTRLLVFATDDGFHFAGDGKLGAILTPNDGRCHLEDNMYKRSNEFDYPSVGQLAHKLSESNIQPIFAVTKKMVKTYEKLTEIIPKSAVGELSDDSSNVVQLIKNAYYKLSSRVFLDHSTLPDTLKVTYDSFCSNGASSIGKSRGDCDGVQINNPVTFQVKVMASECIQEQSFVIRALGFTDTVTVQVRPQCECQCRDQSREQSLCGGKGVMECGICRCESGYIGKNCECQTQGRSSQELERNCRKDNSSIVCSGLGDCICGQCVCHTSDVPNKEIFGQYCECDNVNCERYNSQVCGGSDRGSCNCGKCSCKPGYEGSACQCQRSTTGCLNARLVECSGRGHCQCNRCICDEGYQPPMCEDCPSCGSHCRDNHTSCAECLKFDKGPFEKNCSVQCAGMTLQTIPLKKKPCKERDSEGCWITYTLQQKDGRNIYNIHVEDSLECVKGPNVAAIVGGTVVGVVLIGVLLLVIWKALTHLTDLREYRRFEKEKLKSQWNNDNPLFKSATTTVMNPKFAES

CD45 knockdown in TK-1 cells: subpopulation of CD45-low cells at the 6:1 ratio of siRNA to fusion protein: 14%
Substance: multimerized ICAM-1-protamine fusion protein (80 pmoles fusion protein with 10 pmoles anti-Fc Fab′2)
